Ends that are not written are not given here. * marks the point of attachment. Biotin = O=C1N[C@H]2[C@H](CS[C@H]2CCCCC(=O)*)N1
T1: K559 PDZ-GST fusion protein (Homo sapiens (Human), UniProt Q9Y6V0 4489-4593)
T1 construct: Order of GST and PDZ part and limits not seen in the excerpts
T1 sequence: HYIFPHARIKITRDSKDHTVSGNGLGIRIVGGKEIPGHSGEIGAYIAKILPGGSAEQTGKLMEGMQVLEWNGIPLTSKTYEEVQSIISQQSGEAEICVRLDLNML

T2: GST-TAX-IP43 PDZ domain fusion protein (human, UniProt Q13884 109-180)
T2 construct: also called TAX43; not shown: glutathione S-transferase encoded by vector pGEX-3X (Pharmacia)
T2 sequence: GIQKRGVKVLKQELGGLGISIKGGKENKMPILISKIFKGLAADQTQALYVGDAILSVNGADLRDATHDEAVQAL

T3: GST-DVL1 PDZ domain fusion protein (human, UniProt O14640 247-339)
T3 construct: also called human dishevelled segment polarity protein homolog; not shown: glutathione S-transferase encoded by vector pGEX-3X (Pharmacia)
T3 sequence: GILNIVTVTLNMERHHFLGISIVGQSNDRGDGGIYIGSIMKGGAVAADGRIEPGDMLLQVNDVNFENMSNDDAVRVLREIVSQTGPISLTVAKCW

T4: GST-PTN-4 PDZ domain fusion protein (Homo sapiens (Human), UniProt P29074 517-605)
T4 construct: also called protein-tyrosine phosphatase meg1; not shown: glutathione S-transferase encoded by vector pGEX-3X (Pharmacia)
T4 sequence: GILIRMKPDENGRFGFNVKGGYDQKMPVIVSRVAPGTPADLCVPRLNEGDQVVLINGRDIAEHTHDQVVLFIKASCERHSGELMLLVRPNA

T5: GST-TAX-IP2 PDZ domain fusion protein (human, UniProt O14908 129-216)
T5 construct: also called TAX-1P2; TAX2; not shown: glutathione S-transferase encoded by vector pGEX-3X (Pharmacia)
T5 chain: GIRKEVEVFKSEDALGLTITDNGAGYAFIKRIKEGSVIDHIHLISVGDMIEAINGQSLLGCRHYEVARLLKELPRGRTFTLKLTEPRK

T6: SP short PDZ-GST fusion protein (Homo sapiens (Human), UniProt O43464 350-435)
T6 construct: The label SP short is not explained in the excerpts
T6 sequence: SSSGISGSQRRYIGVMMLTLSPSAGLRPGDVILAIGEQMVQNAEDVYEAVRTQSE

T7: GST-PDZK1 fusion protein (PDZ domains 2-4) (Homo sapiens, UniProt Q5T2W1 134-457)
T7 construct: not shown: glutathione S-transferase encoded by vector pGEX-3X (Pharmacia)
T7 sequence: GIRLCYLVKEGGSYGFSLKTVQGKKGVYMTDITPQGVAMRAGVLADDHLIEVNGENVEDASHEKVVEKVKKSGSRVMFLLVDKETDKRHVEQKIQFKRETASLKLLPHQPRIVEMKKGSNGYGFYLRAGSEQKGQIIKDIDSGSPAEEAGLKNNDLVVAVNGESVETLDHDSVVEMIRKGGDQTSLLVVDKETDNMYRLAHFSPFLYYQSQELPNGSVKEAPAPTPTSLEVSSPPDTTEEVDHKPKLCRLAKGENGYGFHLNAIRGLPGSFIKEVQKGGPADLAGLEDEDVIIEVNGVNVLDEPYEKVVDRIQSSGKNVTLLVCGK

T8: TAX-IP33 PDZ-GST fusion protein (Homo sapiens (Human), UniProt O14910 103-193)
T8 construct: Order of GST and PDZ part and limits not seen in the excerpts
T8 sequence: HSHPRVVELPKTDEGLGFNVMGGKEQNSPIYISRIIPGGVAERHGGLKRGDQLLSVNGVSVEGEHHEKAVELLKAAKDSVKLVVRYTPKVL

T9: GST-MPP1 PDZ domain fusion protein (Homo sapiens (Human), UniProt Q00013 67-152)
T9 construct: also called p55; 55 Kd erythrocyte membrane protein; not shown: glutathione S-transferase encoded by vector pGEX-3X (Pharmacia)
T9 sequence: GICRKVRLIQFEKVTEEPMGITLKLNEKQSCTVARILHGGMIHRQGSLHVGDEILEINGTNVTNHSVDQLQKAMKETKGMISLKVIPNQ

T10: GST-mouse syntenin fusion protein (Mus musculus, UniProt O08992 108-286)
T10 construct: also called Mus musculus Syntenin; not shown: glutathione S-transferase encoded by vector pGEX-3X (Pharmacia)
T10 chain: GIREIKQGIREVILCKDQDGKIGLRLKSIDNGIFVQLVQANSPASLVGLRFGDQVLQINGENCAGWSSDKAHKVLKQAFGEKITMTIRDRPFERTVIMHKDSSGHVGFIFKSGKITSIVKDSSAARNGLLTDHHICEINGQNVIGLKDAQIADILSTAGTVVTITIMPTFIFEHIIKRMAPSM

T11: GST-prIL16 fusion protein (PDZ domains 1-2) (Homo sapiens (Human), UniProt Q14005 1111-1324)
T11 construct: also called putative interleukin 16 precursor; not shown: glutathione S-transferase encoded by vector pGEX-3X (Pharmacia)
T11 sequence: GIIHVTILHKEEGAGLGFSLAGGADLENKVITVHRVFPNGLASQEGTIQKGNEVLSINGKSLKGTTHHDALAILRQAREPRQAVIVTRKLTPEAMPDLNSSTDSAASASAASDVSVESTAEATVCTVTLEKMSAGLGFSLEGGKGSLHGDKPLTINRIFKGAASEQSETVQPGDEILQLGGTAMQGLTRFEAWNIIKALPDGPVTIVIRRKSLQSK

B1: Mannose receptor C-terminal peptide AA31L (peptide)
peptide: Biotin-GTSDMKDLVGNIEQNEHSVI
notes: Only the last four residues are seen in the excerpts

Each binder was assayed against T1, K559 PDZ-GST fusion protein (assay: A/G assays).

Binding result, no binding:
Biotin-CAISGTSSDRGYGSPRYAEV (also called AA3L-V) [Clasp-4 C-terminal peptide AA3L, biotinylated]
B1
Biotin-ISKATPALPTVSISSSAEV (also called AA1L-R) [Clasp-1 C-terminal peptide AA1L, biotinylated]
Biotin-ENLAPVTTFGKTNGYIA (also called CD148 (DEP-1)) [CD148 C-terminal peptide AA19L, biotinylated]

These binders were tested against T2, GST-TAX-IP43 PDZ domain fusion protein (assay: A/G assays).

Binding result, no binding:
Biotin-CAISGTSSDRGYGSPRYAEV (also called AA3L-V) [Clasp-4 C-terminal peptide AA3L, biotinylated]
B1
Biotin-ISKATPALPTVSISSSAEV (also called AA1L-R) [Clasp-1 C-terminal peptide AA1L, biotinylated]
Biotin-ENLAPVTTFGKTNGYIA (also called CD148 (DEP-1)) [CD148 C-terminal peptide AA19L, biotinylated]

What follows are binders tested against T12, GST-TIAM1 PDZ domain fusion protein (Homo sapiens (Human), UniProt Q13009 845-931) (assay: A/G assays).
T12 construct: also called TLAM1; T-lymphoma invasion and metastasis inducing protein 1; not shown: glutathione S-transferase encoded by vector pGEX-3X (Pharmacia)
T12 sequence (Q13009 other isoform, or with tags, fused parts or gaps): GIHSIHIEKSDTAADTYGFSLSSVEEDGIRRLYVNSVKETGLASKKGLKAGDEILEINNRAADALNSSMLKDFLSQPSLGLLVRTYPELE

Binding result, no binding:
Biotin-CAISGTSSDRGYGSPRYAEV (also called AA3L-V) [Clasp-4 C-terminal peptide AA3L, biotinylated]
B1
Biotin-ISKATPALPTVSISSSAEV (also called AA1L-R) [Clasp-1 C-terminal peptide AA1L, biotinylated]
Biotin-ENLAPVTTFGKTNGYIA (also called CD148 (DEP-1)) [CD148 C-terminal peptide AA19L, biotinylated]

What follows are binders tested against T3, GST-DVL1 PDZ domain fusion protein (assay: A/G assays).

Binding result, no binding:
Biotin-CAISGTSSDRGYGSPRYAEV (also called AA3L-V) [Clasp-4 C-terminal peptide AA3L, biotinylated]
B1
Biotin-ISKATPALPTVSISSSAEV (also called AA1L-R) [Clasp-1 C-terminal peptide AA1L, biotinylated]
Biotin-ENLAPVTTFGKTNGYIA (also called CD148 (DEP-1)) [CD148 C-terminal peptide AA19L, biotinylated]

The binders below were run against T4, GST-PTN-4 PDZ domain fusion protein (assay: A/G assays).

Binding result, no binding:
Biotin-CAISGTSSDRGYGSPRYAEV (also called AA3L-V) [Clasp-4 C-terminal peptide AA3L, biotinylated]
B1
Biotin-ISKATPALPTVSISSSAEV (also called AA1L-R) [Clasp-1 C-terminal peptide AA1L, biotinylated]
Biotin-ENLAPVTTFGKTNGYIA (also called CD148 (DEP-1)) [CD148 C-terminal peptide AA19L, biotinylated]

These binders were tested against T13, K316 PDZ-GST fusion protein (Homo sapiens (Human), UniProt Q14CM0 72-159) (assay: A/G assays).
T13 construct: Order of GST and PDZ part and limits not seen in the excerpts
T13 sequence (Q14CM0 72-159 limits assumed): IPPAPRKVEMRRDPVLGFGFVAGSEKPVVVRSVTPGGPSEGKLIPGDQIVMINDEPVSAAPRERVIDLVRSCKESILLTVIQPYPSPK

Binding result, no binding:
Biotin-CAISGTSSDRGYGSPRYAEV (also called AA3L-V) [Clasp-4 C-terminal peptide AA3L, biotinylated]
B1
Biotin-ISKATPALPTVSISSSAEV (also called AA1L-R) [Clasp-1 C-terminal peptide AA1L, biotinylated]
Biotin-ENLAPVTTFGKTNGYIA (also called CD148 (DEP-1)) [CD148 C-terminal peptide AA19L, biotinylated]

Target: T5, GST-TAX-IP2 PDZ domain fusion protein
Experiment: A/G assays

Binding result, no binding:
Biotin-CAISGTSSDRGYGSPRYAEV (also called AA3L-V) [Clasp-4 C-terminal peptide AA3L, biotinylated]
B1
Biotin-ISKATPALPTVSISSSAEV (also called AA1L-R) [Clasp-1 C-terminal peptide AA1L, biotinylated]
Biotin-ENLAPVTTFGKTNGYIA (also called CD148 (DEP-1)) [CD148 C-terminal peptide AA19L, biotinylated]

What follows are binders tested against T6, SP short PDZ-GST fusion protein (assay: A/G assays).

Binding result, no binding:
Biotin-CAISGTSSDRGYGSPRYAEV (also called AA3L-V) [Clasp-4 C-terminal peptide AA3L, biotinylated]
B1
Biotin-ISKATPALPTVSISSSAEV (also called AA1L-R) [Clasp-1 C-terminal peptide AA1L, biotinylated]
Biotin-ENLAPVTTFGKTNGYIA (also called CD148 (DEP-1)) [CD148 C-terminal peptide AA19L, biotinylated]

What follows are binders tested against T7, GST-PDZK1 fusion protein (PDZ domains …) (assay: A/G assays).

Binding result, no binding:
Biotin-CAISGTSSDRGYGSPRYAEV (also called AA3L-V) [Clasp-4 C-terminal peptide AA3L, biotinylated]
B1
Biotin-ISKATPALPTVSISSSAEV (also called AA1L-R) [Clasp-1 C-terminal peptide AA1L, biotinylated]
Biotin-ENLAPVTTFGKTNGYIA (also called CD148 (DEP-1)) [CD148 C-terminal peptide AA19L, biotinylated]

The binders below were run against T8, TAX-IP33 PDZ-GST fusion protein (assay: A/G assays).

Binding result, no binding:
Biotin-CAISGTSSDRGYGSPRYAEV (also called AA3L-V) [Clasp-4 C-terminal peptide AA3L, biotinylated]
B1
Biotin-ISKATPALPTVSISSSAEV (also called AA1L-R) [Clasp-1 C-terminal peptide AA1L, biotinylated]
Biotin-ENLAPVTTFGKTNGYIA (also called CD148 (DEP-1)) [CD148 C-terminal peptide AA19L, biotinylated]

Each binder was assayed against T9, GST-MPP1 PDZ domain fusion protein (assay: A/G assays).

Binding result, no binding:
Biotin-CAISGTSSDRGYGSPRYAEV (also called AA3L-V) [Clasp-4 C-terminal peptide AA3L, biotinylated]
B1
Biotin-ISKATPALPTVSISSSAEV (also called AA1L-R) [Clasp-1 C-terminal peptide AA1L, biotinylated]
Biotin-ENLAPVTTFGKTNGYIA (also called CD148 (DEP-1)) [CD148 C-terminal peptide AA19L, biotinylated]

Target: T10, GST-mouse syntenin fusion protein
Experiment: A/G assays

Binding result, no binding:
Biotin-CAISGTSSDRGYGSPRYAEV (also called AA3L-V) [Clasp-4 C-terminal peptide AA3L, biotinylated]
B1
Biotin-ISKATPALPTVSISSSAEV (also called AA1L-R) [Clasp-1 C-terminal peptide AA1L, biotinylated]
Biotin-ENLAPVTTFGKTNGYIA (also called CD148 (DEP-1)) [CD148 C-terminal peptide AA19L, biotinylated]

What follows are binders tested against T14, NOS1 PDZ-GST fusion protein (Homo sapiens (Human), UniProt P29475 11-100) (assay: A/G assays).
T14 construct: Order of GST and PDZ part and limits not seen in the excerpts
T14 sequence (P29475 11-100 limits assumed): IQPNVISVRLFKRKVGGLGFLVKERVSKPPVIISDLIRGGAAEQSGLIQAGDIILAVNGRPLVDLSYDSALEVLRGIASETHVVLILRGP

Binding result, no binding:
Biotin-CAISGTSSDRGYGSPRYAEV (also called AA3L-V) [Clasp-4 C-terminal peptide AA3L, biotinylated]
B1
Biotin-ISKATPALPTVSISSSAEV (also called AA1L-R) [Clasp-1 C-terminal peptide AA1L, biotinylated]
Biotin-ENLAPVTTFGKTNGYIA (also called CD148 (DEP-1)) [CD148 C-terminal peptide AA19L, biotinylated]

Each binder was assayed against T11, GST-prIL16 fusion protein (PDZ domains …) (assay: A/G assays).

Binding result, no binding:
Biotin-CAISGTSSDRGYGSPRYAEV (also called AA3L-V) [Clasp-4 C-terminal peptide AA3L, biotinylated]
B1
Biotin-ISKATPALPTVSISSSAEV (also called AA1L-R) [Clasp-1 C-terminal peptide AA1L, biotinylated]
Biotin-ENLAPVTTFGKTNGYIA (also called CD148 (DEP-1)) [CD148 C-terminal peptide AA19L, biotinylated]

What follows are binders tested against T15, PICK1 PDZ-GST fusion protein (Bos taurus (Bovine), UniProt Q2T9M1 17-105) (assay: A/G assays).
T15 construct: Order of GST and PDZ part and limits not seen in the excerpts
T15 sequence (Q2T9M1 other isoform, or with tags, fused parts or gaps limits assumed): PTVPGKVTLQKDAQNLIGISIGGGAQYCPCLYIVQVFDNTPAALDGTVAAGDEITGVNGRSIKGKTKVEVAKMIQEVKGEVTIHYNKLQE

Binding result, no binding:
Biotin-CAISGTSSDRGYGSPRYAEV (also called AA3L-V) [Clasp-4 C-terminal peptide AA3L, biotinylated]
B1
Biotin-ISKATPALPTVSISSSAEV (also called AA1L-R) [Clasp-1 C-terminal peptide AA1L, biotinylated]
Biotin-ENLAPVTTFGKTNGYIA (also called CD148 (DEP-1)) [CD148 C-terminal peptide AA19L, biotinylated]
